These results are taken from patent publication US20240132615A1 (ICHNOS SCIENCES, published 2024).

Experiment [1] addresses T1, human BCMA on cells (NCI-H929, NCI-H929 CD38 KO, MOLP-8) (human, UniProt Q02223 1-184).
T1 construct: whole, on cells; endogenous BCMA of myeloma cell lines
T1 sequence (looked up): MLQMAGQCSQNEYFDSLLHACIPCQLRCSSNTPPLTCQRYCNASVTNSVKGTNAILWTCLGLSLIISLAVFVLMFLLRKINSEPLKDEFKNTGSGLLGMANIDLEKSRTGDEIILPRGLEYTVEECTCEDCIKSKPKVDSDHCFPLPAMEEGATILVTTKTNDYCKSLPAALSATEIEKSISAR
Put plainly: flow cytometry, NCI-H929 cells.

Experiment [2] deals with T1, human BCMA on cells (NCI-H929, NCI-H929 …). The experiment can be described thus: flow cytometry, NCI-H929 cells, one-site fit. A general note: A flow cytometer gives signals particle by particle.
The target in experiment [3] is T2, Biotinylated Human BCMA/TNFRSF17 Protein, His, Avitag (Acrobiosystems BCA-H82E4) (human, UniProt Q02223 1-54, biotinylated).
T2 construct: bought protein; also called biotinylated recombinant human BCMA protein; hBCMA
T2 sequence (looked up): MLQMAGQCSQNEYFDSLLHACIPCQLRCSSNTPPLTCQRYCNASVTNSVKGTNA
Put plainly: SPR, Fab as analyte, biotin-captured human BCMA.

In experiment [4] the target is T3, biotinylated recombinant cynomolgus monkey BCMA Fc fusion protein (Acrobiosystems BCA-C82F4) (cynomolgus monkey, UniProt A0A2K5UD97 1-53).
T3 construct: bought protein; not shown: Fc of the bought fusion protein, not described
The experiment can be described thus: SPR, Fab as analyte, biotin-captured cynomolgus BCMA-Fc. Background: SPR reads the build-up and loss of mass on a sensor chip optically.

Experiment [5] has as its target T4, recombinant human BCMA protein (Acrobiosystems BCA-H522y) (human, UniProt Q02223 1-54).
T4 construct: bought protein
T4 sequence (looked up): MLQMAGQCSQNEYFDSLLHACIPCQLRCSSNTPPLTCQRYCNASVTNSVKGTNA
Put plainly: SPR, Fab as analyte, immobilised human BCMA, 1:1 Langmuir.

Experiment [6] concerns the target T5, recombinant cynomolgus monkey BCMA protein (Acrobiosystems BCA-C52H7) (cynomolgus monkey, UniProt A0A2K5UD97 1-53). The experiment can be described thus: SPR, Fab as analyte, immobilised cynomolgus BCMA, 1:1 Langmuir.
Experiment [7] addresses T5, recombinant cynomolgus monkey BCMA …. Put plainly: SPR, Fab as analyte, immobilised cynomolgus BCMA.

T3 sequence (A0A2K5UD97 entry or part of it): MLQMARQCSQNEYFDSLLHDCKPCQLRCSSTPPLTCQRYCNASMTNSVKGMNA
T5 sequence (A0A2K5UD97 entry or part of it): as above

B1: Anti-BCMA-E6-PP02-G2 FAB (Fab, V domains shown)
VH: EVQLLESGGGLVQPGGSLRLSCAASGFTFSYYAMTWVRQAPGKGLEWVGTISQSVGQVVKYADSVKGRFTISRDNSKNTLYLQMNSLRAEDTAVYYCARSPYSYLHGYYGFDYWGQGTLVTVSS
VL: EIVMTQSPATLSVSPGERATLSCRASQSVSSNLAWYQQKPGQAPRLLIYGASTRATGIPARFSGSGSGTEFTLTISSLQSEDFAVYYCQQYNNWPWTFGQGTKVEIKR
notes: Fab
In the case of B1, the “Maximum binding (RFI)” value in experiment [1] was found to be 40500 RFI. The Kd in experiment [2] was 5.22 nM; in experiment [3], 0.176 nM; in experiment [4], 0.728 nM.

B2: anti-BCMA-UCP01-A10 FAB (Fab, V domains shown)
VH: QVQLVQSGAEVKKPGSSVKVSCKASGYVFSDHIISWVRQAPGQGLEWMGGIIPHGGAPTYAQKFQGRVTITADESTSTAYMELSSLRSEDTAVYYCARDLFDYYPQGFDYWGQGTLVTVSS
VL: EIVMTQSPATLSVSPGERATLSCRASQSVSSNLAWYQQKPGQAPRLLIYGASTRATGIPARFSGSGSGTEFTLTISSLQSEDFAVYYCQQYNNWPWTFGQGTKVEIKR
notes: Fab
Regarding B2, the Kd in experiment [5] was 214 nM.

B3: anti-BCMA-UCP01-E9 FAB (Fab, V domains shown)
VH: EVQLLESGGGLVQPGGSLRLSCAASGFTFSNYAMSWVRQAPGKGLEWVSVISERGAVTVYADSVKGRFTISRDNSKNTLYLQMNSLRAEDTAVYYCARSPYGYSSGVEGYFGFDVWGQGTLVTVSS
VL: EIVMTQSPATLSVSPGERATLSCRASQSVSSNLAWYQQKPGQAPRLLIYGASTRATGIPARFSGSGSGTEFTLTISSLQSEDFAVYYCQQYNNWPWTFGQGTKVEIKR
notes: Fab
For B3, the Kd came out at 10 nM in experiment [5] and 236 nM in experiment [6].

B4: Anti-BCMA-E6-PP02-D2 FAB (Fab, V domains shown)
VH: EVQLLESGGGLVQPGGSLRLSCAASGFTFSYYAMTWVRQAPGKGLEWVSTISQQNEQTKYADSVKGRFTISRDNSKNTLYLQMNSLRAEDTAVYYCARSPYSYLHGYYGFDYWGQGTLVTVSS
VL: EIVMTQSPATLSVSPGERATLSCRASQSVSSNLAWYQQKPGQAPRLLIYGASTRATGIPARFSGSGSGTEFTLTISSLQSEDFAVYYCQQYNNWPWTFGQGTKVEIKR
notes: Fab
In the case of B4, the “Maximum binding (RFI)” value in experiment [1] worked out at 36300 RFI. Moreover, the Kd in experiment [2] was 6.58 nM; in experiment [3], 0.342 nM; in experiment [4], 0.97 nM.

B5: anti-BCMA-PP02-E6 FAB (Fab, V domains shown)
VH: EVQLLESGGGLVQPGGSLRLSCAASGFTFSYYAMTWVRQAPGKGLEWVSTISQNGGQTKYADSVKGRFTISRDNSKNTLYLQMNSLRAEDTAVYYCARSPYSYLHGYYGFDYWGQGTLVTVSS
VL: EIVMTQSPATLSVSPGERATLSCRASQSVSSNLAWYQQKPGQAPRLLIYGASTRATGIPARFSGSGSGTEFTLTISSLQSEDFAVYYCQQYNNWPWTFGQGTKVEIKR
notes: Fab; also called anti-BCMA-E6; anti-BCMA-E6 Fab
Consider B5, for which the Kd was found to be 18 nM in experiment [5] and 52 nM in experiment [6].

B6: Anti-BCMA-E6-PP02-A3 FAB (Fab, V domains shown)
VH: EVQLLESGGGLVQPGGSLRLSCAASGFTFSYYAMTWVRQAPGKGLEWVSTISSQNDITKYADSVKGRFTISRDNSKNTLYLQMNSLRAEDTAVYYCARSPYSYLHGYYGFDYWGQGTLVTVSS
VL: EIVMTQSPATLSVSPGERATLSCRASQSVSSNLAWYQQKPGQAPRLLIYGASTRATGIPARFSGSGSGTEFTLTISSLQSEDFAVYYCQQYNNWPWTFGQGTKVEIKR
notes: Fab
With B6, the “Maximum binding (RFI)” value in experiment [1] turned out to be 40200 RFI. Further, the values for the Kd in experiment [2], in experiment [3] and in experiment [4] were 6.37 nM, 0.33 nM and 0.915 nM, respectively.

B7: Anti-BCMA-E6-PP02-B4 FAB (Fab, V domains shown)
VH: EVQLLESGGGLVQPGGSLRLSCAASGFTFSYYAMTWVRQAPGKGLEWVSTISQPGFDAKYADSVKGRFTISRDNSKNTLYLQMNSLRAEDTAVYYCARSPYSYLHGYYGFDYWGQGTLVTVSS
VL: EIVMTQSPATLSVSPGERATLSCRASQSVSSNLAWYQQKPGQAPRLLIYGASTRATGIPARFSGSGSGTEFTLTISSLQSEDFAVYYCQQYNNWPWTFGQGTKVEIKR
notes: Fab
Regarding B7, in experiment [1], the “Maximum binding (RFI)” value stood at 43500 RFI. Further, the Kd in experiment [2] worked out at 5.49 nM; in experiment [3], 0.086 nM; in experiment [4] it was 0.857 nM.

B8: Anti-BCMA-E6-PP02-F7 FAB (Fab, V domains shown)
VH: EVQLLESGGGLVQPGGSLRLSCAASGFTFSYYAMTWVRQAPGKGLEWVSTIGQRGFQTKYADSVKGRFTISRDNSKNTLYLQMNSLRAEDTAVYYCARSPYSYLHGYYGFDYWGQGTLVTVSS
VL: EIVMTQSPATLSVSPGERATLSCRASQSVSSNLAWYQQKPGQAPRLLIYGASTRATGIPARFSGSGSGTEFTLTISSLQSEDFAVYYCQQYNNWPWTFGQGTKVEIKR
notes: Fab
As to B8, the “Maximum binding (RFI)” value in experiment [1] is 44700 RFI. Further, the figures for the Kd in experiment [2], in experiment [3] and in experiment [4] were 5.53 nM, 0.22 nM and 0.964 nM, respectively.

B9: Anti-BCMA-E6-PP02-C7 FAB (Fab, V domains shown)
VH: EVQLLESGGGLVQPGGSLRLSCAASGFTFSYYAMTWVRQAPGKGLEWVSTISQSGLVPKYADSVKGRFTISRDNSKNTLYLQMNSLRAEDTAVYYCARSPYSYLHGYYGFDYWGQGTLVTVSS
VL: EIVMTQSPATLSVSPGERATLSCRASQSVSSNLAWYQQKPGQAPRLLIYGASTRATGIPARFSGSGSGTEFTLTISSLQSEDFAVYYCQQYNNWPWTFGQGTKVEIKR
notes: Fab
On to B9, for which the “Maximum binding (RFI)” value in experiment [1] is 38600 RFI. Besides, the Kd stood at 6.83 nM in experiment [2], 0.3 nM in experiment [3] and 1.19 nM in experiment [4].

B10: Anti-BCMA-E6-PP02-G6 FAB (Fab, V domains shown)
VH: EVQLLESGGGLVQPGGSLRLSCAASGFTFSYYAMTWVRQAPGKGLEWVSTIAQRGGQTKYADSVKGRFTISRDNSKNTLYLQMNSLRAEDTAVYYCARSPYSYLHGYYGFDYWGQGTLVTVSS
VL: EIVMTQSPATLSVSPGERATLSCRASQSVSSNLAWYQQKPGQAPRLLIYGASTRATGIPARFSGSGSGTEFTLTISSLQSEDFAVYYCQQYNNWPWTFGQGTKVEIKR
notes: Fab; also called anti-BCMA-E6-G6; E6-G6
Regarding B10, the “Maximum binding (RFI)” value in experiment [1] amounted to 46500 RFI. Also, the Kd in experiment [2] is 5.78 nM; in experiment [3], 0.33 nM; in experiment [4] it was 2.26 nM.

B11: Anti-BCMA-E6-PP02-E6 FAB (Fab, V domains shown)
VH: EVQLLESGGGLVQPGGSLRLSCAASGFTFSYYAMTWVRQAPGKGLEWVSTISQAGRDFKYADSVKGRFTISRDNSKNTLYLQMNSLRAEDTAVYYCARSPYSYLHGYYGFDYWGQGTLVTVSS
VL: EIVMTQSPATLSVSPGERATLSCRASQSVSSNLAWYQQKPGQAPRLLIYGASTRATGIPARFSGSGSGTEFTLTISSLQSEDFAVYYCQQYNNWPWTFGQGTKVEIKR
notes: Fab; also called anti-BCMA-E6-E6; E6-E6
Consider B11, for which the “Maximum binding (RFI)” value in experiment [1] was determined as 43200 RFI. The Kd turned out to be 5.13 nM in experiment [2], 0.169 nM in experiment [3] and 0.615 nM in experiment [4].

B12: Anti-BCMA-E6-PP02-G7 FAB (Fab, V domains shown)
VH: EVQLLESGGGLVQPGGSLRLSCAASGFTFSYYAMTWVRQAPGKGLEWVSTISQQWDVTKYADSVKGRFTISRDNSKNTLYLQMNSLRAEDTAVYYCARSPYSYLHGYYGFDYWGQGTLVTVSS
VL: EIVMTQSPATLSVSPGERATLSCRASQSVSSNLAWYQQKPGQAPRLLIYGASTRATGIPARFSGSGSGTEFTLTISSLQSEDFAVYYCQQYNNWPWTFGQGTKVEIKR
notes: Fab
With B12, in experiment [1], the “Maximum binding (RFI)” value was 39400 RFI. The Kd in experiment [2] worked out at 4.86 nM; in experiment [3], 0.061 nM; in experiment [4], 0.237 nM.

B13: Anti-BCMA-E6-PP02-B1 FAB (Fab, V domains shown)
VH: EVQLLESGGGLVQPGGSLRLSCAASGFTFSYYAMTWVRQAPGKGLEWVSTVSQAGYDTKYADSVKGRFTISRDNSKNTLYLQMNSLRAEDTAVYYCARSPYSYLHGYYGFDYWGQGTLVTVSS
VL: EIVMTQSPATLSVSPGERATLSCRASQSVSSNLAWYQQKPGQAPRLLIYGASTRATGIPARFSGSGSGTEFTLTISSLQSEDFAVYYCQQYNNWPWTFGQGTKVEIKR
notes: Fab; also called anti-BCMA-E6-B1; E6-B1
With B13, in experiment [1], the “Maximum binding (RFI)” value came to 34700 RFI. In addition, the Kd came to 3.72 nM in experiment [2], 0.182 nM in experiment [3] and 0.51 nM in experiment [4].

B14: anti-BCMA-UCP01-C2 FAB (Fab, V domains shown)
VH: EVQLLESGGGLVQPGGSLRLSCAASGFIFSQYDMSWVRQAPGKGLEWVSAISLLGDFTSYADSVKGRFTISRDNSKNTLYLQMNSLRAEDTAVYYCARRLTDYISGGGDGFDVWGQGTLVTVSS
VL: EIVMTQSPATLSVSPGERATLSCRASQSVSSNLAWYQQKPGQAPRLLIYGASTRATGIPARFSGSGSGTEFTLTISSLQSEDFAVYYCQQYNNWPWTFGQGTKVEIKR
notes: Fab
On to B14, for which the binding result in experiment [7] is on record as “no binding”. In experiment [5], the Kd was 336 nM.

B15: anti-BCMA-PP02-F1 FAB (Fab, V domains shown)
VH: EVQLLESGGGLVQPGGSLRLSCAASGFSFSEYAMSWVRQAPGKGLEWVSALSLSGDVTSYADSVKGRFTISRDNSKNTLYLQMNSLRAEDTAVYYCARSPYSRVGDSYYYDYIGFDIWGQGTLVTVSS
VL: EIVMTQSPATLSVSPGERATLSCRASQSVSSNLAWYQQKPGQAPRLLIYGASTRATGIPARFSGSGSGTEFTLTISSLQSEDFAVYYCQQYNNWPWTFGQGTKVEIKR
notes: Fab
In the case of B15, the Kd in experiment [5] stood at 145 nM; in experiment [6], 598 nM.

B16: anti-BCMA-PP02-C4 FAB (Fab, V domains shown)
VH: EVQLLESGGGLVQPGGSLRLSCAASGFTFTAYDMSWVRQAPGKGLEWVSAISGFGGDTLYADSVKGRFTISRDNSKNTLYLQMNSLRAEDTAVYYCARIGYYYLDSAFDYWGQGTLVTVSS
VL: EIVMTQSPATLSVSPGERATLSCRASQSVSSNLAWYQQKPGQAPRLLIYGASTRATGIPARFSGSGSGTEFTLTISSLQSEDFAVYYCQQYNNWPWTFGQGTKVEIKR
notes: Fab
Consider B16, for which the Kd stood at 608 nM in experiment [5] and 114 nM in experiment [6].

B17: anti-BCMA-PP03-C4 FAB (Fab, V domains shown)
VH: EVQLLESGGGLVQPGGSLRLSCAASGFTFTAYDMSWVRQAPGKGLEWVSAISGFGGDTLYADSVKGRFTISRDNSKNTLYLQMNSLRAEDTAVYYCARIGYYYLDSAFDYWGQGTLVTVSS
VL: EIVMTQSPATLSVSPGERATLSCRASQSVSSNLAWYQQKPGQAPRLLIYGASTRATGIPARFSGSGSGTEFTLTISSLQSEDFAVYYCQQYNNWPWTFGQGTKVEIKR
notes: Fab
In the case of B17, the equilibrium dissociation constant (Kd) in experiment [5] was determined as 549 nM; in experiment [6], 109 nM.

B18: anti-BCMA-PP02-B4 FAB (Fab, V domains shown)
VH: EVQLLESGGGLVQPGGSLRLSCAASGFTFSNYDMSWVRQAPGKGLEWVSAISVSGDFTQYADSVKGRFTISRDNSKNTLYLQMNSLRAEDTAVYYCARVGYYLLDSAFDIWGQGTLVTVSS
VL: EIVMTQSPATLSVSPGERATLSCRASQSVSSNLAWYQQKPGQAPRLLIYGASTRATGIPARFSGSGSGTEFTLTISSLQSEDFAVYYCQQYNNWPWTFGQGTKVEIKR
notes: Fab
For B18, the Kd in experiment [5] amounted to 648 nM; in experiment [6], 58 nM.

B19: anti-BCMA-UCP01-A8 FAB (Fab, V domains shown)
VH: QVQLVQSGAEVKKPGSSVKVSCKASGGLFNYYIINWVRQAPGQGLEWMGGIIPTYGGAGYAQKFQGRVTITADESTSTAYMELSSLRSEDTAVYYCARSSPSISGYAFDVWGQGTLVTVSS
VL: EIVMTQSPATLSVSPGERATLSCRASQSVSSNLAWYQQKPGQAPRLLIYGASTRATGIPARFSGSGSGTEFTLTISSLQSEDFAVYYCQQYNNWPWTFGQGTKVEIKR
notes: Fab
On to B19, for which the binding result in experiment [7] is on record as “no binding”. In addition, the Kd in experiment [5] is 235 nM.

B20: anti-BCMA-PP03-E4 FAB (Fab, V domains shown)
VH: EVQLLESGGGLVQPGGSLRLSCAASGFALSYYAMSWVRQAPGKGLEWVSAISEDGGRTSYADSVKGRFTISRDNSKNTLYLQMNSLRAEDTAVYYCARASAYIPYSEFYAGFDVWGQGTLVTVSS
VL: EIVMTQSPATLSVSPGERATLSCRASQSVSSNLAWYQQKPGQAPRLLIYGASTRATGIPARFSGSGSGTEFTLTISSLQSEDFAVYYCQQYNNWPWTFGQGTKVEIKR
notes: Fab
For B20, the Kd in experiment [5] is 582 nM; in experiment [6] it was 696 nM.

B21: anti-BCMA-PP02-D3 FAB (Fab, V domains shown)
VH: EVQLVESGGGLIQPGGSLRLSCAASGFIFSHYEMNWVRQAPGKGLEWVSAIGQGGNTVYADSVKGRFTISRDNSKNTLYLQMNSLRAEDTAVYYCARVPYSYSGYSGADIWGQGTLVTVSS
VL: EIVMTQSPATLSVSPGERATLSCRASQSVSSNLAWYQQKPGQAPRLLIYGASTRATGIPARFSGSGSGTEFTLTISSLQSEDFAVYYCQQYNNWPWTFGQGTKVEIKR
notes: Fab; also called anti-BCMA-D3; anti-BCMA-D3 Fab
For B21, the Kd was determined as 15 nM in experiment [5] and 40 nM in experiment [6].

B22: anti-BCMA-PP02-A3 FAB (Fab, V domains shown)
VH: EVQLLESGGGLVQPGGSLRLSCAASGFTFSQYAMSWVRQAPGKGLEWVSIISQDGGVTVYADSVKGRFTISRDNSKNTLYLQMNSLRAEDTAVYYCARSPYGGGSYIPHDSWGQGTLVTVSS
VL: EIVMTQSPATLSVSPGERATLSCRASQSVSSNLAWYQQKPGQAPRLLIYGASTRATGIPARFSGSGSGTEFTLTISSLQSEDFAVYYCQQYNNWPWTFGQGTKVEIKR
notes: Fab
As for B22, the Kd in experiment [5] was determined as 318 nM.

Broadly, the Kd is a measure of binding affinity in units of concentration.
